Measurements: patent US20190083585

Tests used:
[1] = target: T1, immunodominant α9-gliadin peptide QLQPFPQPQLPY
T1 chain: QLQPFPQPQLPY

Suc-APQ-pNA = target: T2, Suc-APQ-pNA
T2 chain: APQ

[2] = target: T3, fluorescently quenched α-gliadin hexapeptide analogue QXL520-PQPQLP-K(5-FAM)-NH2
T3 chain: PQPQLP

Suc-APE-pNA = target: T4, Suc-APE-pNA
T4 chain: APE

B1: KumaMax™ (Kumamolisin-As V119D, S262K, N291D, D293T, G319S, D358G, D368H) (protein)
chain: AAPTAYTPLDVAQAYQFPEGLDGQGQCIAIIELGGGYDEASLAQYFASLGVPAPQVVSVSVDGASNQPTGDPKGPDGEVELDIEVAGALAPGAKFAVYFAPDTTAGFLDAITTAIHDPTLKPSVVSISWSGPEDSWTSAAIAAMNRAFLDAAALGVTVLAAAGDSGSTGGEQDGLYHVHFPAASPYVLACGGTRLVASGGRIAQETVWNDGPDGGATGGGVSRIFPLPAWQEHANVPPSANPGASSGRGVPDLAGNADPATGYEVVIDGEATVIGGTSAVAPLFAALVARINQKLGKAVGYLNPTLYQLPADVFHDITEGNNDIANRAQIYQAGPGWDPCTGLGSPIGVRLLQALLPSASQPQPGSTENLYFQSGALEHHHHHH
fraction of immunogenic peptide proteolyzed after 50 minutes (LC-MS, pH 4, 37° C.) [1]: over 95% of the immunogenic peptide had been proteolyzed after a 50 minute incubation
half-life of the peptide in the presence of KumaMax [1]: 8.5 ± 0.7 min
Catalytic Efficiency (kcat/KM) (Suc-APQ-pNA): 6.7 M⁻¹ s⁻¹
Catalytic Efficiency (kcat/KM) [2]: 568 M⁻¹ s⁻¹
Fold Change in Activity of PQ Hydrolysis Relative to Wild Type Kumamolysin-As [2]: 120 fold
Catalytic Efficiency (kcat/KM) (Suc-APE-pNA): 1.4 M⁻¹ s⁻¹
fold decrease in activity compared to its activity on the PQ substrate (Suc-APE-pNA): roughly 5-fold decrease in activity on the PE peptide substrate compared to its activity on the PQ substrate
